Source: patent US20070041972A1 (Alexion, published 2007)

How the values were obtained:
[1] = molecular target: T1, human high affinity receptor for IgG (FcγRI) on U937 cells (human, UniProt P12314 16-374); assay: flow cytometry competition with 3.0 ng/mL biotinylated hIgG on U937 cells
T1 construct: whole, on cells; also called FcγRI receptor
Description: The antibody produced in accordance with this Example was tested to evaluate binding to the human high affinity receptor for IgG (FcγRI).

[2] = molecular target: T2, human low affinity receptor for IgG (FcγRII) on K562 cells (human, UniProt P12318 34-317); assay: flow cytometry on K562 cells, antibody complexed with FITC-rabbit Fab'2 anti-human Fab'2
T2 construct: whole, on cells
T2 sequence (looked up): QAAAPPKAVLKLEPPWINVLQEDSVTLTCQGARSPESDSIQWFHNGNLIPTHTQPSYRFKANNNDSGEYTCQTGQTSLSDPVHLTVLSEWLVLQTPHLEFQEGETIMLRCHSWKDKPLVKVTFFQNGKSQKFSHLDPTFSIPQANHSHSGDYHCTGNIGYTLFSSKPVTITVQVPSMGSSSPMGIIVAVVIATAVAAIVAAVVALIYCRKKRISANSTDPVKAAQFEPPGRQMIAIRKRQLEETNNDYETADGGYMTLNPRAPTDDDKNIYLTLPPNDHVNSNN
Excerpt: Binding of the FITC—rabbit Fab′2 anti-human Fab′2 antibodies alone is also indicated.

B1: chimeric OKT3 hG2/G4 recombinant antibody (murine OKT3 variable regions, engineered human IgG2/IgG4 heavy chain constant region, human kappa constant region) (antibody)
heavy: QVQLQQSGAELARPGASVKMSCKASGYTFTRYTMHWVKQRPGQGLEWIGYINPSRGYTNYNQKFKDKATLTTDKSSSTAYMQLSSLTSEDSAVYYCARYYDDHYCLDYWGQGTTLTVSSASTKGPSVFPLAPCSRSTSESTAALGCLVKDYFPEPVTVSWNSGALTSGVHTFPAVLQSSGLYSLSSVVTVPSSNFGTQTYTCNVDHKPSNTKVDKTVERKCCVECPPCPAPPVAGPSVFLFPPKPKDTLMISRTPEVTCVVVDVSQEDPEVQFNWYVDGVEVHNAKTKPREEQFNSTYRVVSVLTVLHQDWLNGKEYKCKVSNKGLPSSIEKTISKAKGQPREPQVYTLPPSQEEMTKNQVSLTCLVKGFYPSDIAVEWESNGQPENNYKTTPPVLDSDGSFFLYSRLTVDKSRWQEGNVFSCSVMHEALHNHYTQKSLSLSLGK
light: QIVLTQSPAIMSASPGEKVTMTCSASSSVSYMNWYQQKSGTSPKRWIYDTSKLASGVPAHFRGSGSGTSYSLTISGMEAEDAATYYCQQWSSNPFTFGSGTKLEIKRTVAAPSVFIFPPSDEQLKSGTASVVCLLNNFYPREAKVQWKVDNALQSGNSQESVTEQDSKDSTYSLSSTLTLSKADYEKHKVYACEVTHQGLSSPVTKSFNRGEC
notes: Made in two expression systems; also called chimeric antibody containing an engineered IgG2/IgG4 human constant region
- binding result [1]: no binding
- binding result [2]: no binding
